The values that follow come from patent publication US20180305450A1 (AstraZeneca / MedImmune, published 2018).

Assay [1] concerns the target T1, recombinant biotinylated human PAR2 extracellular domain (residues 1-75), N-terminal AviTag, C-terminal Flag … (human, UniProt P55085 26-75, biotin on the AviTag (enzymatic biotinylation)).
T1 construct: also called Bio-human-PAR2 ECD; human PAR2 ECD; not shown: N-terminal AviTag (Avidity LLC); C-terminal Flag and poly Histidine tags
The assay can be described thus: Biacore SPR 25 C, pH 6.0. The protocol:
(§1) The experiments were carried out using recombinant human, rat and cynomolgus PAR2 with an N-terminal Avi tag and C-terminal Flag-His tags.
(§2) Streptavidin was covalently immobilised to a C1 chip surface using standard amine coupling techniques at a concentration of 4 μg/ml in 10 mM Sodium acetate pH 4.5. A final streptavidin surface of approximately 30-100 RUs was achieved. Recombinant biotinylated PAR2 species (produced in-house) were titrated onto the streptavidin chip surface at 4 μg/ml in HBS-EP+ buffer to enable Fab binding at saturation (Rₘₐₓ). This low level of analyte binding ensured minimal mass transport effects.
(§3) The anti-PAR2 Fabs were serially diluted (0.39 nM-25 nM) in HBS-EP+ buffer pH 7.4 or MES-BS-EP+ pH 6.0 buffer or in MES-BS-EP+ pH 5.6 buffer and flowed over the chip at 50 μl/min, with 3 minutes association and up to 30 minutes dissociation. Multiple buffer-only injections were made under the same conditions to allow for double reference subtraction of the final sensorgram sets, which were analysed using the BiaEval software (version 2.0.1). The chip surface was fully regenerated with pulses of 4 M MgCl₂.
(In general: SPR reads the build-up and loss of mass on a sensor chip optically.)

The target in assay [2] is T2, recombinant biotinylated rat PAR2 extracellular residues 1-75, N-terminal AviTag, C-terminal Flag and poly … (rat, UniProt Q63645 26-75, not fully specified; biotin on the AviTag (enzymatic biotinylation)).
T2 construct: range 1-75; not shown: N-terminal AviTag (Avidity LLC); C-terminal Flag and poly Histidine tags
T2 chain (looked up): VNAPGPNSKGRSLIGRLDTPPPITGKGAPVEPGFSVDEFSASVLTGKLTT
The assay can be described thus: Biacore SPR 25 C, pH 6.0. The protocol: as §1, §2, §3

Assay [3] addresses T1, recombinant biotinylated human PAR2 …. The assay can be described thus: Biacore SPR 25 C, pH 7.4. Here is the method: as §1, §2, §3
The target in assay [4] is T2, recombinant biotinylated rat PAR2 …. The assay can be described thus: Biacore SPR 25 C, pH 7.4. Here is the method: as §1, §2, §3
Assay [5] has as its target T1, recombinant biotinylated human PAR2 …. The assay can be described thus: HTRF competition with Dylight650-Par0067 IgG, pH 7.4, IgG. Here is the method:
(§4) Parent Par0067 IgG (used as a reference/control in all assays) was pre-diluted to give a 2000 nM stock in each of the two different pH assay buffers (in order to give a top final assay IgG concentration of 500 nM). All test, or other reference/control IgG were tested from a top final assay concentration of ¼ of the neat undiluted sample (i.e. no pre-dilution step was performed). Duplicate 11 point 1:3 serial dilutions then were prepared on 384 well polypropylene Greiner plates in each of the two assay buffers (pH 7.4 & 6.0). 5 μl per well was transferred from the relevant pH IgG dilution plate to the corresponding assay plate (pH 7.4 and pH 6.0). 5 ul of the appropriate pH assay buffer was added to the total and non-specific wells.
(§5) For multipoint dose response curves % Specific Binding values were plotted versus test purified antibody concentration (scFv or IgG). IC₅₀ values were determined via a sigmoidal dose response inhibition variable slope curve fit (4 parameter logistic equation) using Graphpad Prism Software.
On the technique in general: Time-resolved FRET reads energy transfer from a long-lived donor to a nearby acceptor.

Assay [6] shares this target. The assay can be described thus: HTRF competition with Dylight650-Par0067 IgG, IgG. The protocol:
as §4, §5

The term Kd denotes the concentration at which binding is half-saturated. What is called koff is the rate constant with which the complex falls apart. In general, kon refers to a measure of how fast the partners come together. As a reminder, the IC50 is the concentration needed to halve the response being measured.

T1 sequence (P55085 26-75): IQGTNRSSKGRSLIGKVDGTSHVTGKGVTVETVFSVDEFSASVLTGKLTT

B1: PaB670103 Fab (Fab, V domains shown)
VH: EVQLLESGGGLVQPGGSLRLSCAASGFTFSSYAMNWVRQAPGKGLEWVSTISYSGSLISYADSVKGRFTISRDNSKNTLYLQMNSLRAEDTAVYYCARINNDPMDVWGQGTLVTVSS
VL: SIELTQPPSVSVSPGQTASITCSGDNLGKKYVQWYQQKPGQSPVLVIYDDSNRPSGIPERFSGSNSGNTATLTISGTQAMDEADYYCHTWDGHHTTGETNHFGGGTKLTVL
notes: Fab; also called ZZ1RCX-C09
B1: the Kd was found to be 1.8 nM in assay [1], 10.2 nM in assay [2], 0.0325 nM in assay [3] and 0.184 nM in assay [4]. Moreover, the koff in assay [1] is 0.000607 s⁻¹; in assay [2], 0.00542 s⁻¹; in assay [3] it was 0.000111 s⁻¹; in assay [4] it was 0.000558 s⁻¹. The kon is 336000 M⁻¹ s⁻¹ in assay [1], 531000 M⁻¹ s⁻¹ in assay [2], 3.52e+06 M⁻¹ s⁻¹ in assay [3] and 3.04e+06 M⁻¹ s⁻¹ in assay [4].

B2: Par0067 Fab (Fab, V domains shown)
VH: EVQLLESGGGLVQPGGSLRLSCAASGFTFSSYAMNWVRQAPGKGLEWVSTISYSGSLISYADSVKGRFTISRDNSKNTLYLQMNSLRAEDTAVYYCARINNDPMDVWGQGTLVTVSS
VL: SIELTQPPSVSVSPGQTASITCSGDNLGKKYVQWYQQKPGQSPVLVIYDDSNRPSGIPERFSGSNSGNTATLTISGTQAMDEADYYCQTWDGNPTTGETNVFGGGTKLTVL
notes: Fab; also called ZZ15D2-D02
Take B2: the dissociation constant Kd worked out at 0.0312 nM in assay [1], 0.17 nM in assay [2], 0.0075 nM in assay [3] and 0.0376 nM in assay [4]. The dissociation rate constant (koff) in assay [1] was determined as 9.72e-05 s⁻¹; in assay [2], 0.000544 s⁻¹; in assay [3], 4.96e-05 s⁻¹; in assay [4], 0.000194 s⁻¹. The on-rate (kon) in assay [1] came out at 3.12e+06 M⁻¹ s⁻¹; in assay [2], 3.21e+06 M⁻¹ s⁻¹; in assay [3], 6.66e+06 M⁻¹ s⁻¹; in assay [4] it was 5.16e+06 M⁻¹ s⁻¹.

B3: PaB670149 IgG (antibody, V domains shown)
VH: EVQLLESGGGLVQPGGSLRLSCAASGFTFSSYAMNWVRQAPGKGLEWVSTISYHGHHISYADSHHHRFTISRDNSKNTLYLQMNSLRAEDTAVYYCARINHDPMDVWGQGTLVTVSS
VL: SIELTQPPSVSVSPGQTASITCSGDNLGKKYVQWYQQKPGQSPVLVIYDDSNRPSGIPERFSGSNSGNTATLTISGTQAMDEADYYCHTWHHHPTHGEHNVFGGGTKLTVL
notes: IgG1-TM (L234F, L235E, P331S), human lambda light chain
B3: in assay [5], the IC50 was 505 nM. Besides, the “Fold IC50 pH 7.4 (Variant v Par0067)” value in assay [6] stood at 605 fold.

B4: PaB670159 IgG (antibody, V domains shown)
VH: EVQLLESGGGLVQPGGSLRLSCAASGFTFSSYAMNWVRQAPGKGLEWVSTISYHGHHISYADSHHHRFTISRDNSKNTLYLQMNSLRAEDTAVYYCARINHDPMDVWGQGTLVTVSS
VL: SIELTQPPSVSVSPGQTASITCSGDNLGKKYVQWYQQKPGQSPVLVIYDDSNRPSGIPERFSGSNSGNTATLTISGTQAMDEADYYCQTWDGHHHTGETNHFGGGTKLTVL
notes: as for B3
As for B4, in assay [5], the IC50 came out at 161 nM. The “Fold IC50 pH 7.4 (Variant v Par0067)” value in assay [6] stood at 193 fold.

B5: PaB670128 IgG (antibody, V domains shown)
VH: EVQLLESGGGLVQPGGSLRLSCAASGFTFSSYAMNWVRQAPGKGLEWVSTISYHGHHISYADSHHHRFTISRDNSKNTLYLQMNSLRAEDTAVYYCARIHHDPMDVWGQGTLVTVSS
VL: SIELTQPPSVSVSPGQTASITCSGDNLGKKYVQWYQQKPGQSPVLVIYDDSNRPSGIPERFSGSNSGNTATLTISGTQAMDEADYYCQTWDGNPTTGETNVFGGGTKLTVL
notes: IgG1-TM (L234F, L235E, P331S), human lambda light chain; also called ZZ1RUE-A01
Regarding B5, in assay [5], the half-maximal inhibitory concentration (IC50) was determined as 32.8 nM. The “Fold IC50 pH 7.4 (Variant v Par0067)” value in assay [6] was 39.3 fold.

B6: PaB670120 Fab (Fab, V domains shown)
VH: EVQLLESGGGLVQPGGSLRLSCAASGFTFSSYAMNWVRQAPGKGLEWVSTISYHGHHISYADSHHHRFTISRDNSKNTLYLQMNSLRAEDTAVYYCARINHDPMDVWGQGTLVTVSS
VL: SIELTQPPSVSVSPGQTASITCSGDNLGKKYVQWYQQKPGQSPVLVIYDDSNRPSGIPERFSGSNSGNTATLTISGTQAMDEADYYCQTWDGNPTTGETNVFGGGTKLTVL
notes: Fab; also called ZZ1RUC-C11
For the molecule B6, the Kd in assay [1] is 6.05 nM; in assay [2] it was 34 nM; in assay [3] it was 0.247 nM; in assay [4], 2.61 nM. Further, the off-rate constant (koff) was determined as 0.021 s⁻¹ in assay [1], 0.281 s⁻¹ in assay [2], 0.00137 s⁻¹ in assay [3] and 0.0146 s⁻¹ in assay [4]. The on-rate constant (kon) in assay [1] was determined as 3.48e+06 M⁻¹ s⁻¹; in assay [2], 8.26e+06 M⁻¹ s⁻¹; in assay [3] it was 5.54e+06 M⁻¹ s⁻¹; in assay [4], 5.62e+06 M⁻¹ s⁻¹.

B7: PaB670076 Fab (Fab, V domains shown)
VH: EVQLLESGGGLVQPGGSLRLSCAASGFTFSSYAMNWVRQAPGKGLEWVSTISYSGSLISYADSVKGRFTISRDNSKNTLYLQMNSLRAEDTAVYYCARINNDPMDVWGQGTLVTVSS
VL: SIELTQPPSVSVSPGQTASITCSGDNLGKKYVQWYQQKPGQSPVLVIYDDSNRPSGIPERFSGSNSGNTATLTISGTQAMDEADYYCHTWDHHHTTGEHNVFGGGTKLTVL
notes: Fab; also called ZZ1NHH-F09
Consider B7, for which the Kd in assay [1] is 4.61 nM; in assay [2], 30.7 nM; in assay [3], 0.207 nM; in assay [4] it was 1.69 nM. Also, the koff in assay [1] stood at 0.00514 s⁻¹; in assay [2], 0.051 s⁻¹; in assay [3] it was 0.00121 s⁻¹; in assay [4] it was 0.0107 s⁻¹. Moreover, the on-rate (kon) in assay [1] was determined as 1.11e+06 M⁻¹ s⁻¹; in assay [2], 1.66e+06 M⁻¹ s⁻¹; in assay [3] it was 5.84e+06 M⁻¹ s⁻¹; in assay [4] it was 6.34e+06 M⁻¹ s⁻¹.

B8: PaB670128 Fab (Fab, V domains shown)
VH: EVQLLESGGGLVQPGGSLRLSCAASGFTFSSYAMNWVRQAPGKGLEWVSTISYHGHHISYADSHHHRFTISRDNSKNTLYLQMNSLRAEDTAVYYCARIHHDPMDVWGQGTLVTVSS
VL: SIELTQPPSVSVSPGQTASITCSGDNLGKKYVQWYQQKPGQSPVLVIYDDSNRPSGIPERFSGSNSGNTATLTISGTQAMDEADYYCQTWDGNPTTGETNVFGGGTKLTVL
notes: Fab; also called ZZ1RUE-A01
Take B8: the Kd was 20.1 nM in assay [1], 38.5 nM in assay [2], 0.613 nM in assay [3] and 3.02 nM in assay [4]. Besides, the koff came out at 0.0457 s⁻¹ in assay [1], 0.0689 s⁻¹ in assay [2], 0.00365 s⁻¹ in assay [3] and 0.0196 s⁻¹ in assay [4]. Also, the on-rate (kon) in assay [1] came to 2.22e+06 M⁻¹ s⁻¹; in assay [2] it was 1.79e+06 M⁻¹ s⁻¹; in assay [3], 5.95e+06 M⁻¹ s⁻¹; in assay [4] it was 6.49e+06 M⁻¹ s⁻¹.

B9: PaB670163 IgG (antibody, V domains shown)
VH: EVQLLESGGGLVQPGGSLRLSCAASGFTFSSYAMNWVRQAPGKGLEWVSTISYHGHHISYADSHHHRFTISRDNSKNTLYLQMNSLRAEDTAVYYCARINHDPMDVWGQGTLVTVSS
VL: SIELTQPPSVSVSPGQTASITCSGDNLGKKYVQWYQQKPGQSPVLVIYDDSNRPSGIPERFSGSNSGNTATLTISGTQAMDEADYYCHTWDGHHTTGETNHFGGGTKLTVL
notes: as for B3
For the molecule B9, the 50% inhibitory concentration (IC50) in assay [5] stood at 145 nM. For the same molecule, the “Fold IC50 pH 7.4 (Variant v Par0067)” value in assay [6] is 174 fold.

B10: PaB670084 Fab (Fab, V domains shown)
VH: EVQLLESGGGLVQPGGSLRLSCAASGFTFSSYAMNWVRQAPGKGLEWVSTISHSGHLIHHADSHKGRFTISRDNSKNTLYLQMNSLRAEDTAVYYCARINNDPMDVWGQGTLVTVSS
VL: SIELTQPPSVSVSPGQTASITCSGDNLGKKYVQWYQQKPGQSPVLVIYDDSNRPSGIPERFSGSNSGNTATLTISGTQAMDEADYYCQTWDGNPTTGETNVFGGGTKLTVL
notes: Fab; also called ZZ1PXA-A05
Regarding B10, the Kd in assay [1] was 4.41 nM; in assay [2] it was 10.8 nM; in assay [3], 0.25 nM; in assay [4] it was 1.23 nM. The dissociation rate constant (koff) in assay [1] amounted to 0.00763 s⁻¹; in assay [2], 0.0277 s⁻¹; in assay [3], 0.00162 s⁻¹; in assay [4], 0.00837 s⁻¹. The association rate constant (kon) in assay [1] came out at 1.73e+06 M⁻¹ s⁻¹; in assay [2], 2.57e+06 M⁻¹ s⁻¹; in assay [3] it was 6.49e+06 M⁻¹ s⁻¹; in assay [4], 6.83e+06 M⁻¹ s⁻¹.
